From the supplement of paper PMC11208486

Legend:
[1] = specific initial activity, cyclohex-2-enone reduction (U mg-1); higher = more active
Method: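 Specific initial activity of purified ene reductases with 10 mM cyclohex-2-enone and 0.2 mM NAD(P)H in 50 mM sodium phosphate pH 7.4 with 0-45% (v/v) ethanol or methanol, at set reaction temperatures of 25-45 °C. NAD(P)H depletion was followed at 340 nm for 480 s, in triplicate.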

[2] = melting temperature (ThermoFMN); higher = more thermostable
Method: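 Purified His-tagged ene reductases (1 mg/ml) in 50 mM sodium phosphate pH 7.4 with 0-30% (v/v) organic co-solvent. Melting temperature was measured by the ThermoFMN assay (FMN fluorescence, 20-90 °C at 1 °C/min, inflection point, triplicate). Specific initial activity was measured with 10 mM cyclohex-2-enone and 0.2 mM NAD(P)H (NADH for LacER) as A340 depletion, at room temperature (DMSO, 2-propanol, n-propanol) or 25 °C (EtOH, MeOH), in triplicate. The TsOYE Tm is above the 90 °C measurement range.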

MNPKYKPLFEPFTFKSGVTINNRIAVAPMTHYASNEDGTISEAELDYIIPRSKEMGMVITACANVTPDGKAFPGQPAIHDDSNIPGLKKLAQAIQAQGAKAVVQIHHGGIECPSELVPQQDVVGPSDVFDNGKQIARALTEEEVENIVKAFGEATRRAIEAGFDGVEIHGANGYLIQQFYSPKTNQRTDRWGGSDEKRLAFPLAIVDEVKKAASEHAKGAFLVGYRLSPEEPETPGLTMTETYTLVDALGDKELDYLHISLMDVNSKARRGADPTRTRMDLLNERVGNKVPLIAVGSIHSADDALAVIENGIPLVAMGREILVDPNWTVKVKEGREKQIETVIKGTDKEKYHLPEPLWQAIVNTQGWVPYKD
Conditions | melting temperature [°C] | specific initial activity
[1], co-solvent: ethanol, co-solvent concentration (% v/v): 0, reaction temperature 25 °C | – | 0.8
[1], co-solvent: ethanol, co-solvent concentration (% v/v): 0, reaction temperature 30 °C | – | 0.56
[1], co-solvent: ethanol, co-solvent concentration (% v/v): 0, reaction temperature 35 °C | – | 0.24
[1], co-solvent: ethanol, co-solvent concentration (% v/v): 0, reaction temperature 40 °C | – | 0.15
[1], co-solvent: ethanol, co-solvent concentration (% v/v): 5, reaction temperature 25 °C | – | 0.77
[1], co-solvent: ethanol, co-solvent concentration (% v/v): 5, reaction temperature 30 °C | – | 0.66
[1], co-solvent: ethanol, co-solvent concentration (% v/v): 5, reaction temperature 35 °C | – | 0.27
[1], co-solvent: ethanol, co-solvent concentration (% v/v): 5, reaction temperature 40 °C | – | 0.05
[1], co-solvent: ethanol, co-solvent concentration (% v/v): 10, reaction temperature 25 °C | – | 0.95
[1], co-solvent: ethanol, co-solvent concentration (% v/v): 10, reaction temperature 30 °C | – | 0.67
[1], co-solvent: ethanol, co-solvent concentration (% v/v): 10, reaction temperature 35 °C | – | 0.28
[1], co-solvent: ethanol, co-solvent concentration (% v/v): 10, reaction temperature 40 °C | – | 0.04
[1], co-solvent: ethanol, co-solvent concentration (% v/v): 15, reaction temperature 25 °C | – | 0.96
[1], co-solvent: ethanol, co-solvent concentration (% v/v): 15, reaction temperature 30 °C | – | 0.85
[1], co-solvent: ethanol, co-solvent concentration (% v/v): 15, reaction temperature 35 °C | – | 0.21
[1], co-solvent: ethanol, co-solvent concentration (% v/v): 15, reaction temperature 40 °C | – | 0.03
[1], co-solvent: ethanol, co-solvent concentration (% v/v): 20, reaction temperature 25 °C | – | 0.99
[1], co-solvent: ethanol, co-solvent concentration (% v/v): 20, reaction temperature 30 °C | – | 0.75
[1], co-solvent: ethanol, co-solvent concentration (% v/v): 20, reaction temperature 35 °C | – | 0.17
[1], co-solvent: ethanol, co-solvent concentration (% v/v): 20, reaction temperature 40 °C | – | 0.03
[1], co-solvent: ethanol, co-solvent concentration (% v/v): 25, reaction temperature 25 °C | – | 0.88
[1], co-solvent: ethanol, co-solvent concentration (% v/v): 25, reaction temperature 30 °C | – | 0.63
[1], co-solvent: ethanol, co-solvent concentration (% v/v): 25, reaction temperature 35 °C | – | 0.08
[1], co-solvent: ethanol, co-solvent concentration (% v/v): 25, reaction temperature 40 °C | – | 0.03
[1], co-solvent: ethanol, co-solvent concentration (% v/v): 30, reaction temperature 25 °C | – | 0.63
[1], co-solvent: ethanol, co-solvent concentration (% v/v): 30, reaction temperature 30 °C | – | 0.44
[1], co-solvent: ethanol, co-solvent concentration (% v/v): 30, reaction temperature 35 °C | – | 0.04
[1], co-solvent: ethanol, co-solvent concentration (% v/v): 30, reaction temperature 40 °C | – | 0.04
[1], co-solvent: ethanol, co-solvent concentration (% v/v): 35, reaction temperature 25 °C | – | 0.45
[1], co-solvent: ethanol, co-solvent concentration (% v/v): 35, reaction temperature 30 °C | – | 0.25
[1], co-solvent: ethanol, co-solvent concentration (% v/v): 35, reaction temperature 35 °C | – | 0.02
[1], co-solvent: ethanol, co-solvent concentration (% v/v): 35, reaction temperature 40 °C | – | 0.04
[1], co-solvent: ethanol, co-solvent concentration (% v/v): 40, reaction temperature 25 °C | – | 0.23
[1], co-solvent: ethanol, co-solvent concentration (% v/v): 40, reaction temperature 30 °C | – | 0.1
[1], co-solvent: ethanol, co-solvent concentration (% v/v): 40, reaction temperature 35 °C | – | 0.04
[1], co-solvent: ethanol, co-solvent concentration (% v/v): 40, reaction temperature 40 °C | – | 0.02
[1], co-solvent: ethanol, co-solvent concentration (% v/v): 45, reaction temperature 25 °C | – | 0.11
[1], co-solvent: ethanol, co-solvent concentration (% v/v): 45, reaction temperature 30 °C | – | 0.06
[1], co-solvent: ethanol, co-solvent concentration (% v/v): 45, reaction temperature 35 °C | – | 0
[1], co-solvent: ethanol, co-solvent concentration (% v/v): 45, reaction temperature 40 °C | – | 0.04
[1], co-solvent: methanol, co-solvent concentration (% v/v): 0, reaction temperature 25 °C | – | 0.66
[1], co-solvent: methanol, co-solvent concentration (% v/v): 0, reaction temperature 30 °C | – | 0.51
[1], co-solvent: methanol, co-solvent concentration (% v/v): 0, reaction temperature 35 °C | – | 0.25
[1], co-solvent: methanol, co-solvent concentration (% v/v): 0, reaction temperature 40 °C | – | 0.12
[1], co-solvent: methanol, co-solvent concentration (% v/v): 5, reaction temperature 25 °C | – | 0.61
[1], co-solvent: methanol, co-solvent concentration (% v/v): 5, reaction temperature 30 °C | – | 0.42
[1], co-solvent: methanol, co-solvent concentration (% v/v): 5, reaction temperature 35 °C | – | 0.2
[1], co-solvent: methanol, co-solvent concentration (% v/v): 5, reaction temperature 40 °C | – | 0.09
[1], co-solvent: methanol, co-solvent concentration (% v/v): 10, reaction temperature 25 °C | – | 0.69
[1], co-solvent: methanol, co-solvent concentration (% v/v): 10, reaction temperature 30 °C | – | 0.41
[1], co-solvent: methanol, co-solvent concentration (% v/v): 10, reaction temperature 35 °C | – | 0.14
[1], co-solvent: methanol, co-solvent concentration (% v/v): 10, reaction temperature 40 °C | – | 0.04
[1], co-solvent: methanol, co-solvent concentration (% v/v): 15, reaction temperature 25 °C | – | 0.65
[1], co-solvent: methanol, co-solvent concentration (% v/v): 15, reaction temperature 30 °C | – | 0.43
[1], co-solvent: methanol, co-solvent concentration (% v/v): 15, reaction temperature 35 °C | – | 0.1
[1], co-solvent: methanol, co-solvent concentration (% v/v): 15, reaction temperature 40 °C | – | 0.02
[1], co-solvent: methanol, co-solvent concentration (% v/v): 20, reaction temperature 25 °C | – | 0.66
[1], co-solvent: methanol, co-solvent concentration (% v/v): 20, reaction temperature 30 °C | – | 0.4
[1], co-solvent: methanol, co-solvent concentration (% v/v): 20, reaction temperature 35 °C | – | 0.1
[1], co-solvent: methanol, co-solvent concentration (% v/v): 20, reaction temperature 40 °C | – | 0.03
[1], co-solvent: methanol, co-solvent concentration (% v/v): 25, reaction temperature 25 °C | – | 0.6
[1], co-solvent: methanol, co-solvent concentration (% v/v): 25, reaction temperature 30 °C | – | 0.4
[1], co-solvent: methanol, co-solvent concentration (% v/v): 25, reaction temperature 35 °C | – | 0.05
[1], co-solvent: methanol, co-solvent concentration (% v/v): 25, reaction temperature 40 °C | – | 0.02
[1], co-solvent: methanol, co-solvent concentration (% v/v): 30, reaction temperature 25 °C | – | 0.55
[1], co-solvent: methanol, co-solvent concentration (% v/v): 30, reaction temperature 30 °C | – | 0.28
[1], co-solvent: methanol, co-solvent concentration (% v/v): 30, reaction temperature 35 °C | – | 0.04
[1], co-solvent: methanol, co-solvent concentration (% v/v): 30, reaction temperature 40 °C | – | 0.03
[1], co-solvent: methanol, co-solvent concentration (% v/v): 35, reaction temperature 25 °C | – | 0.44
[1], co-solvent: methanol, co-solvent concentration (% v/v): 35, reaction temperature 30 °C | – | 0.21
[1], co-solvent: methanol, co-solvent concentration (% v/v): 35, reaction temperature 35 °C | – | 0.02
[1], co-solvent: methanol, co-solvent concentration (% v/v): 35, reaction temperature 40 °C | – | 0.02
[1], co-solvent: methanol, co-solvent concentration (% v/v): 40, reaction temperature 25 °C | – | 0.2
[1], co-solvent: methanol, co-solvent concentration (% v/v): 40, reaction temperature 30 °C | – | 0.11
[1], co-solvent: methanol, co-solvent concentration (% v/v): 40, reaction temperature 35 °C | – | 0.07
[1], co-solvent: methanol, co-solvent concentration (% v/v): 40, reaction temperature 40 °C | – | 0.03
[1], co-solvent: methanol, co-solvent concentration (% v/v): 45, reaction temperature 25 °C | – | 0.04
[1], co-solvent: methanol, co-solvent concentration (% v/v): 45, reaction temperature 30 °C | – | 0.04
[1], co-solvent: methanol, co-solvent concentration (% v/v): 45, reaction temperature 35 °C | – | 0.04
[1], co-solvent: methanol, co-solvent concentration (% v/v): 45, reaction temperature 40 °C | – | 0.05
[2], co-solvent: 2-propanol, co-solvent concentration (% v/v): 0 | 54 | –
[2], co-solvent: 2-propanol, co-solvent concentration (% v/v): 5 | 46 | –
[2], co-solvent: 2-propanol, co-solvent concentration (% v/v): 10 | 39.3 | –
[2], co-solvent: 2-propanol, co-solvent concentration (% v/v): 15 | 39.3 | –
[2], co-solvent: 2-propanol, co-solvent concentration (% v/v): 20 | 33.7 | –
[2], co-solvent: 2-propanol, co-solvent concentration (% v/v): 25 | 32.7 | –
[2], co-solvent: 2-propanol, co-solvent concentration (% v/v): 30 | 33.7 | –
[2], co-solvent: dimethyl sulfoxide, co-solvent concentration (% v/v): 0 | 54 | –
[2], co-solvent: dimethyl sulfoxide, co-solvent concentration (% v/v): 5 | 51.7 | –
[2], co-solvent: dimethyl sulfoxide, co-solvent concentration (% v/v): 10 | 51 | –
[2], co-solvent: dimethyl sulfoxide, co-solvent concentration (% v/v): 15 | 50 | –
[2], co-solvent: dimethyl sulfoxide, co-solvent concentration (% v/v): 20 | 50 | –
[2], co-solvent: dimethyl sulfoxide, co-solvent concentration (% v/v): 25 | 49.7 | –
[2], co-solvent: dimethyl sulfoxide, co-solvent concentration (% v/v): 30 | 49.7 | –
[2], co-solvent: ethanol, co-solvent concentration (% v/v): 0 | 54 | –
[2], co-solvent: ethanol, co-solvent concentration (% v/v): 5 | 51 | –
[2], co-solvent: ethanol, co-solvent concentration (% v/v): 10 | 45.3 | –
[2], co-solvent: ethanol, co-solvent concentration (% v/v): 15 | 42 | –
[2], co-solvent: ethanol, co-solvent concentration (% v/v): 20 | 38.7 | –
[2], co-solvent: ethanol, co-solvent concentration (% v/v): 25 | 38.3 | –
[2], co-solvent: ethanol, co-solvent concentration (% v/v): 30 | 36.3 | –
[2], co-solvent: methanol, co-solvent concentration (% v/v): 0 | 54 | –
[2], co-solvent: methanol, co-solvent concentration (% v/v): 5 | 52.3 | –
[2], co-solvent: methanol, co-solvent concentration (% v/v): 10 | 49.7 | –
[2], co-solvent: methanol, co-solvent concentration (% v/v): 15 | 43.7 | –
[2], co-solvent: methanol, co-solvent concentration (% v/v): 20 | 44.3 | –
[2], co-solvent: methanol, co-solvent concentration (% v/v): 25 | 42.3 | –
[2], co-solvent: methanol, co-solvent concentration (% v/v): 30 | 40 | –
[2], co-solvent: n-propanol, co-solvent concentration (% v/v): 0 | 54 | –
[2], co-solvent: n-propanol, co-solvent concentration (% v/v): 5 | 43.7 | –
[2], co-solvent: n-propanol, co-solvent concentration (% v/v): 10 | 33 | –
[2], co-solvent: n-propanol, co-solvent concentration (% v/v): 15 | 31.3 | –
[2], co-solvent: n-propanol, co-solvent concentration (% v/v): 20 | 30.3 | –
[2], co-solvent: n-propanol, co-solvent concentration (% v/v): 25 | 29.3 | –
[2], co-solvent: n-propanol, co-solvent concentration (% v/v): 30 | 30.3 | –
